Measured values reported in US20240343803A1 (SHANDONG SIMCERE BIOPHARMACEUTICAL, published 2024).
Residue numbers refer to the chain shown, from its start. Values belong to the binder of their own block, whether it stands above or below them.

Tests used:
[1] = target: T1, human PVRIG on FlpinCHO-PVRIG cells (human, UniProt Q6DKI7 41-326); assay: FACS, FlpinCHO-PVRIG cells
T1 construct: whole, on cells
T1 sequence (looked up): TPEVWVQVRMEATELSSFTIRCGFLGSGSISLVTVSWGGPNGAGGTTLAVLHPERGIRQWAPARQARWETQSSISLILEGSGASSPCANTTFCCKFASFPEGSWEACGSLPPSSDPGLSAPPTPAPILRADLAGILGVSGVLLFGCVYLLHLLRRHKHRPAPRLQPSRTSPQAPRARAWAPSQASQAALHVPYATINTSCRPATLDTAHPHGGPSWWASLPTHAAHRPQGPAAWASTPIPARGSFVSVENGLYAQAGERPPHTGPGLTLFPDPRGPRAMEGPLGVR
Experimental: (§1) The Ham's F12 (Gibico, 21127-022) complete medium containing 10% FBS was then added to terminate the digestion and acquire cell suspension. After counting with a cell counter (Beckman Coulter, Vi-CELL), an appropriate amount of cell suspension was centrifuged at 350×g to remove the supernatant, washed twice with PBS, stained with Zombie violet (Biolegend, 423114) and incubated at room temperature for 20 minutes. After incubation, the cells were added with staining buffer (2% FBS+PBS) to stop staining, centrifuged at 350×g to remove the supernatant, washed twice and resuspended with staining buffer to a density of 2×10⁶ cells/mL. The cells were plated into a 96-well plate (50 μL of cell suspension per well) for further use. The antibodies were diluted from the highest concentration of 46 nM (two-fold concentration) with staining buffer by 3.3-fold serial dilution. The diluted antibodies were added to the well containing 50 μL of cell suspension. The plate was placed on a microplate shaker at 400 rpm for 1 minute to fully mix the antibodies and cells, and then incubated at 4° C. for 30 minutes. After the incubation, the cells were washed twice with staining buffer (200 μL per well) and centrifuged at 350×g for 5 minutes to discard the supernatant. The PE goat anti-human IgG Fc antibody (ebioscience, 12-4998-82) was diluted 250 times with staining buffer, added into the washed wells (100 μL per well), mixed well, and stained at 4° C. for 30 minutes. After staining, the cells were washed twice with staining buffer, finally resuspended with 200 μL staining buffer and analyzed by flow cytometry (BD, Canto II). The stronger the signal, the stronger the ability of the antibodies binds to PVRIG. An antibody binding curve was drawn with concentration of antibodies as the abscissa and the corresponding Mean Fluorescence Intensity (MFI) as the ordinate. The AUC value of the curve was calculated by using a Four Parameter Logistic Fit (GraphPadPrism9). The stronger the AUC value, the stronger the ability of the antibodies binds to FlpinCHO-PVRIG and FlpinCHO-cyno PVRIG. […] The binding activity of the antibodies was normalized to the positive control COM701-hIgG1 and SRF813-hIgG1.

[2] = target: T2, cynomolgus monkey PVRIG on FlpinCHO-cyno PVRIG cells (cynomolgus monkey, UniProt A0A2K5WVV8 41-322); assay: FACS, FlpinCHO-cyno PVRIG cells
T2 construct: whole, on cells
T2 sequence: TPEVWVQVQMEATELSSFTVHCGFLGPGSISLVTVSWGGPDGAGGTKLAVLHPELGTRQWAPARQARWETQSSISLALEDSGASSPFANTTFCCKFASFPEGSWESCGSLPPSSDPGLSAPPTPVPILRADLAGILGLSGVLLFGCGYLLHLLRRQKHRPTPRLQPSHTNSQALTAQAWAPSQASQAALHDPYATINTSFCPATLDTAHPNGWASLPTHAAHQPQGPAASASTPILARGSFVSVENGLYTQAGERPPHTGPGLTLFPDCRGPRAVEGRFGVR
Experimental: as §1, with “The” for “The Ham's F12 (Gibico, 21127-022) complete medium containing 10% FBS was then added to terminate the digestion and acquire cell suspension. After counting with a cell counter (Beckman Coulter, Vi-CELL), an appropriate amount of cell suspension was centrifuged at 350×g to remove the supernatant, washed twice with PBS, stained with Zombie violet (Biolegend, 423114) and incubated at room temperature for 20 minutes. After incubation, the cells were added with staining buffer (2% FBS+PBS) to stop staining, centrifuged at 350×g to remove the supernatant, washed twice and resuspended with staining buffer to a density of 2×10⁶ cells/mL. The cells were plated into a 96-well plate (50 μL of cell suspension per well) for further use. The”, “SRF813-hIgG1. The higher the percentage value, the stronger the binding ability of the antibodies.” for “SRF813-hIgG1.”
The methods refer to Example 19. The stronger the AUC value, the stronger the ability of the humanized antibodies binds to FlpinCHO-human/cyno PVRIG.

B2: PVRIG-A118-H3 (Fc fusion)
chain: EVQLVESGGGLVQPGGSLRLSCAASETYFDLYVMGWYRQAPGKDRELVATITYTGSIKYVDSVKGRFTISRGDAKNSLYLQMNSLRAEDTAVYYCNADPSGLGRKVYWGQGTMVTVSS
notes: humanized variant of PVRIG-A118; also called A118.VH3; not shown: constant part not restated for the humanized forms; parents are VHH-hinge-CH2-CH3 of human IgG1; detected by anti-human
AUC % to COM701-hIgG1 [1]: 129%
AUC % to SRF813-hIgG1 [1]: 180%
AUC % to parental Ab [1]: 94.5%
AUC % to COM701-hIgG1 [2]: 21%
AUC % to SRF813-hIgG1 [2]: 25.6%
AUC % to parental Ab [2]: 33.6%

B5: PVRIG-A50-H1 (Fc fusion)
chain: EVQLVESGGGLVQPGGSLRLSCAASGFTFSYYDMSWVRQAPGKGLEWVSTINSNGGRTSYVDSVKGRFTISRDNSKNTLYLQMNSLRAEDTAVYYCVEGDPHNFGLENLSLRDFGSWGQGTMVTVSS
notes: humanized variant of PVRIG-A50; also called A50.VH1; not shown: constant part not restated for the humanized forms; parents are VHH-hinge-CH2-CH3 of human IgG1; detected by anti-human
AUC % to COM701-hIgG1 [1]: 74.4%
AUC % to SRF813-hIgG1 [1]: 132%
AUC % to parental Ab [1]: 101%
AUC % to COM701-hIgG1 [2]: 45.2%
AUC % to SRF813-hIgG1 [2]: 55.5%
AUC % to parental Ab [2]: 96%

B6: PVRIG-A50-H1d (Fc fusion)
chain: B5 chain with N108S
notes: humanized variant of PVRIG-A50; also called A50.VH1d; not shown: constant part not restated for the humanized forms; parents are VHH-hinge-CH2-CH3 of human IgG1; detected by anti-human
AUC % to COM701-hIgG1 [1]: 63.1%
AUC % to SRF813-hIgG1 [1]: 112%
AUC % to parental Ab [1]: 85.9%
AUC % to COM701-hIgG1 [2]: 48.6%
AUC % to SRF813-hIgG1 [2]: 59.7%
AUC % to parental Ab [2]: 103%

Second part, the binder after the results:

AUC % to COM701-hIgG1 [1]: 126%
AUC % to SRF813-hIgG1 [1]: 177%
AUC % to parental Ab [1]: 92.7%
AUC % to COM701-hIgG1 [2]: 19.7%
AUC % to SRF813-hIgG1 [2]: 24%
AUC % to parental Ab [2]: 31.6%
B1: PVRIG-A118-H7 (Fc fusion)
chain: B2 chain with Y94F
notes: humanized variant of PVRIG-A118; also called A118.VH7; not shown: constant part not restated for the humanized forms; parents are VHH-hinge-CH2-CH3 of human IgG1; detected by anti-human

AUC % to COM701-hIgG1 [1]: 125%
AUC % to SRF813-hIgG1 [1]: 174%
AUC % to parental Ab [1]: 91.3%
AUC % to COM701-hIgG1 [2]: 14.6%
AUC % to SRF813-hIgG1 [2]: 17.8%
AUC % to parental Ab [2]: 23.4%
B3: PVRIG-A118-H2 (Fc fusion)
chain: B2 chain with G72D, D73N
notes: humanized variant of PVRIG-A118; also called A118.VH2; not shown: constant part not restated for the humanized forms; parents are VHH-hinge-CH2-CH3 of human IgG1; detected by anti-human

AUC % to COM701-hIgG1 [1]: 127%
AUC % to SRF813-hIgG1 [1]: 178%
AUC % to parental Ab [1]: 93.2%
AUC % to COM701-hIgG1 [2]: 11.5%
AUC % to SRF813-hIgG1 [2]: 14.1%
AUC % to parental Ab [2]: 18.5%
B4: PVRIG-A118-H1 (Fc fusion)
chain: B2 chain with K58Y, G72D, D73N
notes: humanized variant of PVRIG-A118; also called A118.VH1; not shown: constant part not restated for the humanized forms; parents are VHH-hinge-CH2-CH3 of human IgG1; detected by anti-human
